Test results taken from US20120087899A1.

Legend:
[1] = biological target: Bone morphogenetic protein-2 (BMP-2) (Homo sapiens) (UniProt P12643); assay: cell-based or functional assay
Chain of UniProt P12643 (P12643 283-396, form in doubt): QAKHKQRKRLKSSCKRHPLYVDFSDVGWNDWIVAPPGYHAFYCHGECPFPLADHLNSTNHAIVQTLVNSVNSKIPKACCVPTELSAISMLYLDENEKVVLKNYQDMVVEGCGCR

Row | Substance | inhibition of BMP-2-induced ALP activity in C2C12 cells, noggin at 300 ng/mL, in the presence of heparin or HS5 (3 µg/mL) [1] [%] | inhibition of BMP-2-induced ALP activity in C2C12 cells, noggin at 300 ng/mL, no GAG [1] [%] | FXa activity (cleavage of chromogenic substrate S-2222), AT pre-incubated with HS5 (Antithrombin (AT)) | FXa activity (cleavage of chromogenic substrate S-2222), AT pre-incubated with heparin (Antithrombin (AT)) | FXa activity (cleavage of chromogenic substrate S-2222), AT pre-incubated with pHS or bHS (Antithrombin (AT))
1 | noggin (ligand) | 20 | 70 | – | – | –
2 | Factor Xa (FXa) | – | – | HS5 did not activate AT at any doses tested | heparin (a known anticoagulant) dose dependently activated AT resulting in the inhibition of FXa | In the presence of pHS or bHS, AT significantly reduced FXa activity, but only at 3 µg/mL
